Tests used:
P. aeruginosa [1] = assay: Minimal inhibitory concentration (MIC), modified CLSI broth microdilution in CAA or CAA/HuS; format: cell-based, Pseudomonas aeruginosa; details: for MIC (μg/mL) in CAA: CAA media; for MIC (μg/mL in CAA/HuS) / MIC value in CAA/HuS: CAA supplemented with 25% human serum
[2] = tested on: P. aeruginosa strain ATCC 17647; assay: Minimal Biofilm Eradicating Concentration (MBEC), Calgary Biofilm Device; format: cell-based, Pseudomonas aeruginosa; details: 24 h biofilm, 24 h treatment; minimum concentration removing >95% of biofilm biomass (crystal violet)
Description: All samples were examined in triplicate.

P. aeruginosa [3] = assay: Time-kill assay of GN lysin activity; format: cell-based, Pseudomonas aeruginosa; details: for Log10 CFU/mL T = 3 hr / Log10 CFU/mL T = l hr: lysin 10 μg/mL, T = 0 7.8; for Log10 CFU/mL T = 3 hr: buffer control 7.2, limit of detection 3.7; for Log10 CFU/mL T = l hr: buffer control 7.7; for bactericidal activity in the time-kill assay format: 3-hour timepoint, 10 μg/mL, in either CAA/HuS or HEPES buffer
Method: All treatments were incubated at 37° C. with aeration.

[4] = tested on: carbapenem-resistant clinical strain, WC-452; assay: Checkerboard assay to examine synergy with antibiotics in CAA/HuS; format: cell-based, P. aeruginosa
Method: Fractional inhibitor concentration index (FICI) values were determined for all combinations; values of <0.5 indicate synergy.
(§1) The checkerboard assays is based on a modification of the CLSI method for MIC determination by broth microdilution (26, 29). Checkerboards were constructed by first preparing columns of a 96-well polypropylene microtiter plate, in which each well had the same amount of antibiotic diluted 2-fold along the horizontal axis. […] Summation fractional inhibitory concentrations (ΣFICs) were calculated for each drug and the minimum ΣFIC value (ΣFICmin) was used to determine synergy. ΣFICs were calculated as follows: ΣFIC=FIC A+FIC B, where FIC A is the MIC of each antibiotic in the combination/MIC of each antibiotic alone, and FIC B is the MIC of each GN lysin in the combination/MIC of each GN lysin alone. The combination is considered synergistic when the ΣFIC is ≤0.5, strongly additive when the ΣFIC is >0.5 to <1, additive with the ΣFIC is 1−<2, and antagonistic when the ΣFIC is ≥2.

[5] = tested on: carbapenem-resistant P. aeruginosa strains; assay: Resensitization of carbapenem-resistant clinical strains using carbapenems in combination with lysins; format: cell-based
Method: as §1
Up to seven carbapenem-resistant isolates were assessed. […] See Clinical and Laboratory Standards Institute (CLSI), CLSI. […] M100 Performance Standards for Antimicrobial Susceptibility Testing; 29th Edition. Clinical and Laboratory Standards Institute, Wayne, Pa.

human erythrocytes = format: cell-based
Method: The hemolytic activity of the GN lysins was measured as the amount of hemoglobin released by the lysis of human erythrocytes (30). Briefly, 3 ml of fresh human blood cells (hRBCs) obtained from pooled healthy donors (BioreclamationIVT) in a polycarbonate tube containing heparin was centrifuged at 1,000×g for 5 min at 4° C. The erythrocytes obtained were washed three times with phosphate-buffered saline (PBS) solution (pH 7.2) and resuspended in […]. […] Intact erythrocytes were pelleted by centrifugation at 1,000×g for 5 min at 4° C., and the supernatant was transferred to a new 96-well plate. The release of hemoglobin was monitored by measuring the absorbance at 570 nm.

[6] = CAA/HuS, ‡ indicates bactericidal activity
[7] = HEPES buffer, ‡ indicates bactericidal activity

B1: GN121: Modified GN37, C-terminal peptide RKKTRKRLKKIGKVLKWI, SEQ ID NO: 13 (protein)
chain: MTYTLSKRSLDNLKGVHPDLVAVVHRAIQLTPVDFAVIEGLRSVSRQKELVAAGASKTMNSRHLTGHAVDLAAYVNGIRWDWPLYDAIAVAVKAAAKELGVAIVWGGDWTTFKDGPHFELDRSKYRRKKTRKRLKKIGKVLKWI
P. aeruginosa [1]
  MIC (μg/mL) in CAA: 0.5 µg/mL
  MIC (μg/mL in CAA/HuS): 0.5 µg/mL
  MIC value in CAA/HuS: 0.5 mg/L
[2]
  MBEC: 0.25 µg/mL
P. aeruginosa [3]; [6]
  Log10 CFU/mL T = 3 hr: <3.7‡ Log10 CFU/mL
P. aeruginosa [3]; CAA/HuS
  Log10 CFU/mL T = l hr: 7.4 Log10 CFU/mL
P. aeruginosa [3]; [7]
  Log10 CFU/mL T = 3 hr: <3.7‡ Log10 CFU/mL
  Log10 CFU/mL T = l hr: <3.7‡ Log10 CFU/mL
[4]
  synergy with antibiotics in the checkerboard assay: synergize with a range of antibiotics
[4]; lysin + amikacin
  FICI, Amikacin: 0.375
[4]; lysin + azithromycin
  FICI, Azithromycin: 0.188
[4]; lysin + aztreonam
  FICI, Aztreonam: 0.625
[4]; lysin + ciprofloxacin
  FICI, Ciprofloxacin: 0.313
[4]; lysin + colistin
  FICI, Colistin: 0.375
[4]; lysin + fosfomycin
  FICI, Fosfomycin: 0.375
[4]; lysin + gentamicin
  FICI, Gentamicin: 0.375
[4]; lysin + imipenem
  FICI, Imipenem: 0.375
[4]; lysin + meropenem
  FICI, Meropenem: 0.313
[4]; lysin + piperacillin
  FICI, Piperacillin: 0.375
[4]; lysin + rifampicin
  FICI, Rifampicin: 0.313
[4]; lysin + tobramycin
  FICI, Tobramycin: 0.188
[5]; isolate PA19, MIC of GN121 alone (imipenem checkerboard)
  GN121 Alone: 1 µg/mL
[5]; isolate PA19, MIC of GN121 alone (meropenem checkerboard)
  GN121 Alone: 2 µg/mL
[5]; isolate PA19, MIC of GN121 in combination with imipenem
  GN121 Combination: 0.125 µg/mL
[5]; isolate PA19, MIC of GN121 in combination with meropenem
  GN121 Combination: 0.5 µg/mL
[5]; isolate PA19, imipenem + GN121
  FICI: 0.155
[5]; isolate PA19, meropenem + GN121
  FICI: 0.281
[5]; isolate PA20, MIC of GN121 alone (imipenem checkerboard)
  GN121 Alone: 1 µg/mL
[5]; isolate PA20, MIC of GN121 alone (meropenem checkerboard)
  GN121 Alone: 2 µg/mL
[5]; isolate PA20, MIC of GN121 in combination with imipenem
  GN121 Combination: 0.25 µg/mL
[5]; isolate PA20, MIC of GN121 in combination with meropenem
  GN121 Combination: 0.5 µg/mL
[5]; isolate PA20, imipenem + GN121
  FICI: 0.265
[5]; isolate PA20, meropenem + GN121
  FICI: 0.313
[5]; isolate PA21, MIC of GN121 alone (imipenem checkerboard)
  GN121 Alone: 1 µg/mL
[5]; isolate PA21, MIC of GN121 alone (meropenem checkerboard)
  GN121 Alone: 1 µg/mL
[5]; isolate PA21, MIC of GN121 in combination with imipenem
  GN121 Combination: 0.125 µg/mL
[5]; isolate PA21, MIC of GN121 in combination with meropenem
  GN121 Combination: 0.125 µg/mL
[5]; isolate PA21, imipenem + GN121
  FICI: 0.155
[5]; isolate PA21, meropenem + GN121
  FICI: 0.188
[5]; isolate PA22, MIC of GN121 alone (imipenem checkerboard)
  GN121 Alone: 2 µg/mL
[5]; isolate PA22, MIC of GN121 alone (meropenem checkerboard)
  GN121 Alone: 1 µg/mL
[5]; isolate PA22, MIC of GN121 in combination with imipenem
  GN121 Combination: 0.25 µg/mL
[5]; isolate PA22, MIC of GN121 in combination with meropenem
  GN121 Combination: 0.25 µg/mL
[5]; isolate PA22, imipenem + GN121
  FICI: 0.188
[5]; isolate PA22, meropenem + GN121
  FICI: 0.313
[5]; isolate PA23, MIC of GN121 alone (imipenem checkerboard)
  GN121 Alone: 1 µg/mL
[5]; isolate PA23, MIC of GN121 alone (meropenem checkerboard)
  GN121 Alone: 2 µg/mL
[5]; isolate PA23, MIC of GN121 in combination with imipenem
  GN121 Combination: 0.25 µg/mL
[5]; isolate PA23, MIC of GN121 in combination with meropenem
  GN121 Combination: 0.5 µg/mL
[5]; isolate PA23, imipenem + GN121
  FICI: 0.257
[5]; isolate PA23, meropenem + GN121
  FICI: 0.375
[5]; isolate PA24, MIC of GN121 alone (imipenem checkerboard)
  GN121 Alone: 1 µg/mL
[5]; isolate PA24, MIC of GN121 alone (meropenem checkerboard)
  GN121 Alone: 1 µg/mL
[5]; isolate PA24, MIC of GN121 in combination with imipenem
  GN121 Combination: 0.125 µg/mL
[5]; isolate PA24, MIC of GN121 in combination with meropenem
  GN121 Combination: 0.125 µg/mL
[5]; isolate PA24, imipenem + GN121
  FICI: 0.155
[5]; isolate PA24, meropenem + GN121
  FICI: 0.156
[5]; isolate WC-452, MIC of GN121 alone (meropenem checkerboard)
  GN121 Alone: 1 µg/mL
[5]; isolate WC-452, MIC of GN121 in combination with meropenem
  GN121 Combination: 0.06 µg/mL
[5]; isolate WC-452, meropenem + GN121
  FICI: 0.123
[5]; synergistic combinations with imipenem or meropenem, breakpoints ≤2 sensitive, 4 intermediate, ≥8 resistant
  resensitization of carbapenem-resistant isolates to IPM and MEM: reductions of IPM and MEM MICS to below breakpoint values

B2: GN13: Native lysin, GenBank YP_00638255.1, SEQ ID NO: 23 (protein)
chain: MSDKRVEITGNVSGFFESGGRGVKTVSTGKGDNGGVSYGKHQLASNNGSMALFLESPFGAPYRAQFAGLKPGTAAFTSVYNKIANETPTAFERDQFQYIAASHYDPQAAKLKAEGINVDDRHVAVRECVFSVAVQYGRNTSIIIKALGSNFRGSDKDFIEKVQDYRGATVNTYFKSSSQQTRDSVKNRSQQEKQMLLKLLNS
modifications: Pseudomonas phage Lu11
P. aeruginosa [1]
  MIC (μg/mL) in CAA: 8 µg/mL
  MIC (μg/mL in CAA/HuS): >128 µg/mL
[2]
  MBEC: 0.125 µg/mL
Human erythrocytes
  hemolytic activity: no hemolytic activity whatsoever

B3: GN9: Native lysin, GenBank ECJ78460.1, SEQ ID NO: 21 (protein)
chain: MKNFNEIIEHVLKHEGGYVNDPKDLGGETKYGITKRFYPDLDIKNLTIEQATEIYKKDYWDKNKVESLPQNLWHIYFDMCVNMGKRTAVKVLQRAAVNRGRDIEVDGGLGPATIGALKGVELDRVRAFRVKYYVDLITARPEQEKFYLGWFRRATEV
modifications: Marine metagenome
P. aeruginosa [1]
  MIC (μg/mL) in CAA: 8 µg/mL
  MIC (μg/mL in CAA/HuS): 2 µg/mL
[2]
  MBEC: 0.125 µg/mL
Human erythrocytes
  hemolytic activity: no hemolytic activity whatsoever
P. aeruginosa [3]; [6]
  Log10 CFU/mL T = 3 hr: 7.3 Log10 CFU/mL
P. aeruginosa [3]; CAA/HuS
  Log10 CFU/mL T = l hr: 6.8 Log10 CFU/mL
P. aeruginosa [3]; [7]
  Log10 CFU/mL T = 3 hr: 5.7 Log10 CFU/mL
  Log10 CFU/mL T = l hr: 6.7 Log10 CFU/mL

B4: GN17: Native lysin, GenBank ACD38663.1, SEQ ID NO: 24 (protein, listed as Pseudomonas aeruginosa)
chain: MTLRYGDRSQEVRQLQRRLNTWAGANLYEDGHFGAATEDAVRAFQRSHGLVADGIAGPKTLAALGGADCSHLLQNADLVAAATRLGLPLATIYAVNQVESNGQGFLGNGKPAILFERHIMYRRLAAHDQVTADQLAAQFPALVNPRPGGYAGGTAEHQRLANARQIDDTAALESASWGAFQIMGFHWQRLGYISVQAFAEAMGRSESAQFEAFVRFIDTDPALHKALKARKWADFARLYNGPDYKRNLYDNKLARAYEQHANCAEASA
P. aeruginosa [1]
  MIC (μg/mL) in CAA: 32 µg/mL
  MIC (μg/mL in CAA/HuS): 16 µg/mL
[2]
  MBEC: 0.125 µg/mL
Human erythrocytes
  hemolytic activity: no hemolytic activity whatsoever
P. aeruginosa [3]
  bactericidal activity in the time-kill assay format: bactericidal activity
P. aeruginosa [3]; [6]
  Log10 CFU/mL T = 3 hr: 4.2‡ Log10 CFU/mL
P. aeruginosa [3]; CAA/HuS
  Log10 CFU/mL T = l hr: 6.4 Log10 CFU/mL
P. aeruginosa [3]; [7]
  Log10 CFU/mL T = 3 hr: <3.7‡ Log10 CFU/mL
  Log10 CFU/mL T = l hr: 5.4 Log10 CFU/mL

B5: GN3: Native lysin, WP_012273008.1/Lysozyme, SEQ ID NO: 2 (protein, listed as Pseudomonas putida)
chain: MRTSQRGLSLIKSFEGLRLQAYQDSVGVWTIGYGTTRGVKAGMKISKDQAERMLLNDVQRFEPEVERLIKVPLNQDQWDALMSFTYNLGAANLESSTLRRLLNAGNYAAAAEQFPRWNKAGGQVLAGLTRRRAAERELFLGAA
P. aeruginosa [1]
  MIC (μg/mL) in CAA: 16 µg/mL
  MIC (μg/mL in CAA/HuS): 16 µg/mL
  MIC value in CAA/HuS: 16 mg/L
[2]
  MBEC: 0.25 µg/mL
Human erythrocytes
  hemolytic activity: no hemolytic activity whatsoever
P. aeruginosa [3]
  bactericidal activity in the time-kill assay format: bactericidal activity
P. aeruginosa [3]; [6]
  Log10 CFU/mL T = 3 hr: <3.7‡ Log10 CFU/mL
P. aeruginosa [3]; CAA/HuS
  Log10 CFU/mL T = l hr: 5.8 Log10 CFU/mL
P. aeruginosa [3]; [7]
  Log10 CFU/mL T = 3 hr: <3.7‡ Log10 CFU/mL
  Log10 CFU/mL T = l hr: <3.7‡ Log10 CFU/mL

Source: patent US20220160843A1 (priority 2019, published 2022)
